From the DeepSol protein solubility set

test: soluble on expression in E. coli; label from the status in PepcDB or PDB records

Sequence	soluble on expression in E. coli
MGSDKIHHHHHHMPYSSKEEAAQGWADIIARARSCSAGAARKAVAQLGRRDLFFLLTRLLGREEMFNDWCFARCAEVQRQPDGMLDLWAREHYKSTIITFGQSIRDILNDPEITIGIFSHSRPVAKGFLAQIKHEFEQNHALKTLYPDVLYSDPKRQSPRWSLDGGLVVRRSTNPKEATVEAWGLVDGQPTGKHFRLLVYDDVVTRESVTSPEMIAKVTECWALSLNLGARGGACRTIGTRYHYNDTYKTMMDRKAAEPRIHAATADGTPDGPSVFLPQNELADKRRRMGPFVFGCQMLQNPVADRMQGFREEWLRWWQPGAASWQAMNRYILVDPAASRKEQADWTVMLVVGLGADGNYYLIDGIRDRLNLTGRAGALFRLHRTYRPLAVGYEQYGMQADIEYMHTEMDRRNHRFDITPLAGRLAKADRIRRLVPLFEGGRVYLPRVCPFTDSEGRQRDLSRELVTEEYLAFPVCGHDDMLDCLARITDSALGAHPAVDSNAQYESTANMEYPLWT	not soluble
MDPNKFREKEISKKEALELFEDNEIIFELFKFADSLRREEVGDIVTYVVNRNINFTNICVGNCRFCAFRANENDKHAYFLDIDEIAKRAVEAKKFGCTEVCIQGGLHPKIDTYYQAEILKAVHEATKPYGDIHIHAFSPMEVYFGAENAGLDIKEALKILKENGLNSMPGTAAEILDDDIRAELCPNKIKTKEWIYIIKEAHKLGIPTTATMMYGHIEEYKHWVNHLFIIKEIQEETNGFTEFVPLSFMHKYAPIYKEGKAKAGATGIEDLKVFAVSRIIFKGLIKNIQASWVKLGKKMVQVALRCGANDVGGTLIEESISRSAGAEHGVYMSVEEIRDMIKRVGLIPKERTTLYKILE	not soluble
MFSRVRVSAPSHVHAGNYDIEGSIGRLYGTVGLALGEPRLTLEASPSHSVEVEGGSRRREAEDLARLYLDKVGSRGCRLEGVKIRIYEEIPAHVGLGSTTALALSIGSSIYRICGLEPLDLRELAVTAGRSLVSALGLYSFEQGGLIVDGGFVRGERRPPPLVFRAHVPGSVKVVVALPERPIAKILDIKRREDELLARMPPMDPSMAGWASRVVLLGIMANAAEGRWGEAARWMGEFNRRLGEYWAGEQGGIYCCSEVEEIVRAMVDAGAWSGLQSSWGPTVYGLTPARRAASVLEAARRAVERVGGGKVWVTSVDNVGAVISSF	not soluble
MSIEEEDTNKITCTQDFLHQYFVTERVSIQFGLNNKTVKRINKDEFDKAVNCIMSWTNYPKPGLKRTASTYLLSNSFKKSATVSLPFILGDPVCMPKRVESNNNDTCLLYSDTLYDDPLIQRNDQAGDEIEDEFSFTLLRSEVNEIRPISSSSTAQILQSDYSALMYERQASNGSIFQFSSP	not soluble
RLSLRAKAKEINLENLEEFVSEVKARNLKAYLAVNSTVNEDRLEEAGNVINAAAKAGVDAVIAWDPAVILKARKSGLRIHISTQANTTNHETAEFYRALGAERIVLSRELSLEEIREIRQRSEVEVETFVHGAMCMAVSGRCHLSAYVLGKSGNCGECTQPCRWEWELHGENNLVMESRGKYLLSAKDLCMIEHIPALLGARIDSFKVEGRLRDPGYLEVVSRCYREAIDACKEGTYTREKVDSWLSKLSSVYNRGFSTGFYFGIPGLEGFSPEKSMNASEKKRRAAGIVENYYPRQHAAAIKLLEEGLEIGNEILIEGSTTYLKQRVTSLIKNGMSLQKAEKGDEVGLAVDGTVRRNDRIFI	not soluble
MAVPPTYVDLGKSARDIFTKGYGFGLIKLDLKTRSENGLEFKSSGSANTETSKVAGTLETKYKWAEHGLTFTEKWNTDNTLGTEITLEDQLTKGLKLTFDSSFSPNTGKKSGKIKSSYQREHINLGCDVDYDINGTAVHGALVLGLDGWLAGYQMTFEAGRNRITQSNFAVGYKTDEFQLHTNVNDGTEFGGSIYQKVNDNLETAVNLAWTAGNSNTRFGIAAKYQIDSDAAFSAKVNNSSLVGLGYTQTLKPGIKLTLSALLDGKNINAGGHKMGLGLEFEA	soluble
GPGSMMEPTRNAEYSKQEYWDRRYTEEEHYDWFPSVYPMCVAAAFETVEAVYRVQRSTGAFNGTLKVLHLGTGNSTLCADIRATYEAKYPTEDSRPYRLVQAATDYSAVVIDRMQAKYGLAHPLEDVHWVVADIRDLSRVREQFGPFFDVVLDKGTMDALQADKANQNMEDDIERMLCEVSRCVEGGAGTRVYRVFVQITWEIPYLRLYYTTRNATHTFAWGTNVTYRFLGESDMYRVYTYEVSPPSSE	soluble
MSLMKQIKHFNQNYQELRQLGKVAIGRRAGKLKAGTIILFAVDSQGKILAARKMQGVTVLAKFHPLPQYVNEDIHYMDHYHPLVQKENKLTQQAMENAREIYLRVELGNYQETQPLTPLNGAKIQWQLWKNKVQTKLKGSVEEGHHHHHH	not soluble
MGSDKIHHHHHHMSKVFIVGAAGNVGRRLTQQLAQRGHTLMAMHRHPDQADAIQAAGGVSVLGDITQISATDLATLMSGNDAIVFSAGAGGKGIQLTNDVDGKGLELAVEAAQLAGIQRFILVSVFPDALRGGSVSASFENYMLVKKHADVHLVSTDLDWVILRPGTLLDEVGTGKVNAAVAIPYGSVSRDDVAATLVELIEQPKVNRIIIELTQGEIPINDAISRLVAQ	not soluble
MGSDKIHHHHHHAGKQNEVELVAEKQLAFPLDEQTYYLSKSMFQFEENGKEYLHFENTQKSLYDIVIFDIENQQIAKRIPLHKTGPNGLPAVFGSRPSPDSQYILVAQNNISRLSSINSQGEIIRNYNFQTPEGRFTPLSFGSYYNAPAFIKDSCIFLRQEILKPDMKKEDWPRTHMFASQDLRTGEVKWIPIFYPPIFKEEYDNIAGGYGFSYDYNYKESRLVCGFFGYDSLMVTDDLKHIRWYNAKSRYLKSMKPKLGNSMEGINAIIKLNENPRYWHIMYDKYRNVYYRFAEMPYKLAPNESPYETPKGKEFSVIVLNADFEIIGETKFPGKKYFYKMSFVGREGLYISENNLENPQFDENKLVFTCFKIKNASPNK	not soluble
MGDKGTRVFKKASPNGKLTVYLGKRDFVDHIDLVEPVDGVVLVDPEYLKERRVYVTLTCAFRYGREDLDVLGLTFRKDLFVANVQSFPPAPEDKKPLTRLQERLIKKLGEHAYPFTFEIPPNLPCSVTLQPGPEDTGKACGVDYEVKAFCAENLEEKIHKRNSVRLVIRKVQYAPERPGPQPTAETTRQFLMSDKPLHLEASLDKEIYYHGEPISVNVHVTNNTNKTVKKIKISVRQYADICLFNTAQYKCPVAMEEADDTVAPSSTFCKVYTLTPFLANNREKRGLALDGKLKHEDTNLASSTLLREGANREILGIIVSYKVKVKLVVSRGGLLGDLASSDVAVELPFTLMHPKPKEEPPHREVPEHETPVDTNLIELDTNDDDIVFEDFARQRLKGMKDDKEEEEDGTGSPRLNDR	soluble
GVTGVTTGFTDLDKKTAGLQPSDLIIVAARPSMGKTTFAMNLCENAAMASEKPVLVFSLEMPAEQIMMRMIASLARVDQTKIRTGQNLDEIEWNKIASVVGMFKQKNNLFIDDSSGLTPTDVRSRARRVYRENGGLSMIMVDYLQLMRAPAFSDNRTLEIAEISRSLKALAKELQVPVVALSQLNRTLEQRGDKRPVNSDL	not soluble
MGSDKIHHHHHHVDLMLKSVISYFLPNYCLVCEREIDPNDYLCKDCLTSIRGPIMAPVELLNIDSAHSYWKYESPMKELIRAYKFGDRPGVARLFAKIVFEMIDVFAPSTDVIVPVPTSLQAFIRRGFDTNLRILRHLARTIDIKIDNVLSISGKTVPQSTLKMQDRIDNVRDKFFLRKKPRSTSVILFDDVVTSGATASQCARVLREGGVKEITLLAIASAKK	not soluble
MMLITDTGVPERYIDTDEWGGEVMLRLDDGWCAALDRNTMMCTIYEKRPLICREFEAGAEDCLTERKGIATAYL	soluble
MKGTQMLALNKKCWDIVAPYFFQVDCLPKYGPYTASEDEIHLFDSIKGKKVLDIGCGSGHSLQYMAEHGAEELWGLDLSSTQIETAHETLQSWNPKLICGAMEEERDIPKGYFDIVYSIYALGWTSDLRKTLELIYSYVKPGGSFIFSWEHPVYSNLMYGTEEIAFSSSYHEETPITFETFKGEDVQATLYKRKMSTYINELNRVGFTIERIEEPEPSSSFDEKLAEPSTKYYSLHKARMVPTTFIIKARKLEHHHHHH	soluble
MSVIDIHCHTAGVGAGGSGCFISTRLRESWRYRFYLASFGVTDAELEREGDGLVLRRLAERLAVSTRVQAAVVLALDGAIDSRGNLDQTRTELFIPNDFLSGQCRRYPNLLFGASVNPLRPDALDRLDAAAAASAVLVKWLPSIQGTDPADRRLVPFYRRLAELGLPLLTHTGEEQSFTRADNSLSDPNRLRLPLDEGVTVIAAHCATSGRSEGQRNRHRLLALFAAYPNLHADISSLTQVNRLGHLQWVLKHRELHERLLYGTDMPLPATALTSPWFHLFSLGPFAARRLAAIRNPWDRDVALKLALGMPEQILHNAAGLLRLALEHHHHHH	not soluble
MAVARWLRDHSGPDDVVATNAHCRFAVSDSCDNRHFWISGYTERRVLVEGWGYTARTLASLTDVDREPMGAVPFWDAELLAANDAVFTAPTARAVDLLARRYGVRWLMVDRRRPLTAPDLGQFARLRYARGSFAVYSTLS	not soluble
EPNTPFGHTPPKGLPQDEAALDIEDAVHGALEGAGFVHYETSAFAKPAMQCRHNLNYWQFGDYLGIGAGAHGKISYPDRIERTVRRRHPNDYLALMQSQPSEAVERKTVAAEDLPFEFMMNALRLTDGVPAAMLQERTGVPSAKIMAQIETARQKGLLETDPAVFRPTEKGRLFLNDLLQCFL	not soluble
MAEIYEEGDESVDVNKESEVKTELGKGGGDENVLQFLDSLDGYLTLMDSVNSKLREGWFDLASARHSMGTLRINSTLLDLKYHPASSTLQVTDQDVESLGSVPHFALSKWASKGGSRKGKDFSTDTDSEIGSPLSPQLRHRGVSEEKPSAKDETVLAADEEIKKERAKSLSVFGGLVSPKLRGAQQSFETALETLVEIANMRASMISAFERITEK	soluble
MGSDKIHHHHHHMSGNESVVNYDHFIDKRRVRKAFERAAPLYDQAAVLQREVCDRMLSRLEYIKYMPDVVLDAGSGTGYGTCKLLERYPDASMLAIDIATGMHHQARQRMNSMIPRWRQLFGVGRNQRTSRVRYVAGDIEQLPLEDSCAGLVWSNLALQWCNDLKKTFDEMRRILKNGGLFMFSTFGPDTLKELRQAFRHADDYSHVNRFADMHDIGDMLVHSGFATPVMDMEYITLTYDEVISVMRDLKAIGAHNATGARHRGLTGKNAWQKAIGHYETLRTGGKLPATFEVVYGHAWKPAPRTSILTPETRRHIGLE	not soluble
MVRFRREGVRLDQAVAEALSVSRAKAQAWIQAGRVRVGDRVVLKPAYRLKGEEVAVEPVEEAPMVLPEDLPIPILYEDEDVLALNKPPGLLTHPAPGVYSGTVVNLLLARYYGPVEKGPPELVRPGIVHRLDKDTSGVLVVAKHGGDLEGLARAFRDRLVMKRYLAITEGHPREGVLIAPIGRHPRERHKMHVGGLAARYAETEFQVLATAGPYALVEARPHTGRTHQIRVHLKYLGAPILGDELYGRKSPHIGRQALHAYELRIPHPRTGRILELLAPVPQDMAAAWEALGGRWPEEVVREGYAGAQ	soluble
MSLSDNAQHLYVNGNVGSSTEEITSVEYSKLLQLKLIDESLSFQWCNNYTVLSIYSMKETFARKTIYIHFPKPLLNKWFTAVVYESSETTSNLCFDVILKDGIFINLSLPIDFILSRTRQNEYPENWLKVLNPYDFSVRPPQCLFHVDNTFSVVFLKDGGLLGLKRIPLEILNDFELQPVLFNDSSYFQSFTRMFSKYDNHNSAVVSAELLNDKYLVTLTNDATIKIWDLTTYQLNAHFDLKEKNQQVNYGAAGKYMIICGSLLFVYLPAGNGSFQVIQLENTHSSRISFKPLNVNIPLNLSSYSIWSLIDIQLVKSSIVKQSGLNLVLLWKSNTVTKLQLLSFEDSLYSSYKWIDGNSTYLSDLLDDSDLITNGNMEKALLNLKSHYSQSTYDDAQKILNKNNVMVQINDPHNQDYLNNLEALLKELHKQYQEPSTLTILDDEIIVVNSLHMYHHSTYKLDSQLETIFFNIFEREGHHHHHH	soluble
